# According to US20240400614A1, “CLEAVABLE PEPTIDES AND METHODS OF USE THEREOF” (Bright Peak Therapeutics AG, priority 2023, published 2024):
# Square brackets hold non-standard residues; d marks the D form. Ends that are not written are not given here. Tyr(3-NO2) = N[C@@H](Cc1ccc(O)c([N+](=O)[O-])c1)C(=O)O; 2Abz = Nc1ccccc1C(=O)O
# Legend:
# Type in all cases: biochemical
# uPA = uPA (Homo sapiens, UniProt P00749); assay: FRET peptide cleavage efficiency with uPA; conditions: 200 uM linker, 1 ug/ml protease, 37° C., buffer A pH 8.5
# matriptase = target: T1, matriptase (Homo sapiens, UniProt Q9Y5Y6); assay: FRET peptide cleavage efficiency with matriptase; conditions: 200 uM linker, 1 ug/ml protease, 37° C., buffer B pH 9.0
# T1 construct: purchased R&D Systems 3946-SEB
# T1 sequence (Q9Y5Y6 615-855 limits assumed): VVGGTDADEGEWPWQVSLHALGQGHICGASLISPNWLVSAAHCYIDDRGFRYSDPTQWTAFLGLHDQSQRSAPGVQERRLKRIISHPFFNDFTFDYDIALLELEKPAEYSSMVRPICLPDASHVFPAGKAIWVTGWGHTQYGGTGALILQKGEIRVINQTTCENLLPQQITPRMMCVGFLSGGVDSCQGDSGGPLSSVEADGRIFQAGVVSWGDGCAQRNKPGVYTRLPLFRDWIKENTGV
# MMP-2 = target: T2, MMP-2 (Homo sapiens, UniProt P08253); assay: FRET peptide cleavage efficiency with MMP-2
# T2 construct: purchased SIGMA PF023
# T2 sequence (P08253 110-660): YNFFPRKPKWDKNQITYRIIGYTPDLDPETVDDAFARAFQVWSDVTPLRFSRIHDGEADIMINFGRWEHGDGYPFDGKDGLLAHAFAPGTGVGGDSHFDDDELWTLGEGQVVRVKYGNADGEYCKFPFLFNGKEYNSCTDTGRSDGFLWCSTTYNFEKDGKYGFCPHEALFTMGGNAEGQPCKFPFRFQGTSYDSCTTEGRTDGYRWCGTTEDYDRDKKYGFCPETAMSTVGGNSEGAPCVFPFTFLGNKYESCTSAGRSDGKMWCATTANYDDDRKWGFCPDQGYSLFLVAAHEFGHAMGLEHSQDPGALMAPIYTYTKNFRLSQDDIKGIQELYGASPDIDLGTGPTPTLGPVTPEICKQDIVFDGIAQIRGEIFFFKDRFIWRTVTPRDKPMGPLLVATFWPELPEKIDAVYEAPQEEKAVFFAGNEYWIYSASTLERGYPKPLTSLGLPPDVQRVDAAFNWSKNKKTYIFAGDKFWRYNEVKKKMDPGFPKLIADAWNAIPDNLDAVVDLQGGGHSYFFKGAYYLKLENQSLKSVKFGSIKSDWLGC
# MMP-7 = target: T3, MMP-7 (Homo sapiens, UniProt P09237); assay: FRET peptide cleavage efficiency with MMP-7 (standard pH 7.5; also pH 6.5); conditions: for % cleavage MMP-7 t = 15 min: t = 15 min (Table 9); for % cleavage MMP-7 t = 60 min: t = 60 min (Table 9); for % cleavage MMP-7 t = 120 min: t = 120 min (Table 9)
# T3 construct: purchased SIGMA CC1059
# T3 sequence (P09237 95-267): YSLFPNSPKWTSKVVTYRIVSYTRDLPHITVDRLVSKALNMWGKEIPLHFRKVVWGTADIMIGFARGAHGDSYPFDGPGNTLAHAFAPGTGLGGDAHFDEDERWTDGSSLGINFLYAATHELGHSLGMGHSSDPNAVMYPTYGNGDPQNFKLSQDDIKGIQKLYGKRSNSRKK
# MMP-9 = target: T4, MMP-9 (Homo sapiens, UniProt P14780); assay: FRET peptide cleavage efficiency with MMP-9 (standard pH 7.5; also pH 6.5); conditions: for % cleavage MMP-9 t = 15 min: t = 15 min (Table 9); for % cleavage MMP-9 t = 60 min: t = 60 min (Table 9); for % cleavage MMP-9 t = 120 min: t = 120 min (Table 9)
# T4 construct: purchased SIGMA PF024
# [1] = t = 15 min, 200 uM linker, 1 ug/ml protease, 37° C., buffer C pH 7.5
# [2] = t = 60 min, 200 uM linker, 1 ug/ml protease, 37° C., buffer C pH 7.5
# [3] = t = 120 min, 200 uM linker, 1 ug/ml protease, 37° C., buffer C pH 7.5
# T4 sequence (P14780 94-707): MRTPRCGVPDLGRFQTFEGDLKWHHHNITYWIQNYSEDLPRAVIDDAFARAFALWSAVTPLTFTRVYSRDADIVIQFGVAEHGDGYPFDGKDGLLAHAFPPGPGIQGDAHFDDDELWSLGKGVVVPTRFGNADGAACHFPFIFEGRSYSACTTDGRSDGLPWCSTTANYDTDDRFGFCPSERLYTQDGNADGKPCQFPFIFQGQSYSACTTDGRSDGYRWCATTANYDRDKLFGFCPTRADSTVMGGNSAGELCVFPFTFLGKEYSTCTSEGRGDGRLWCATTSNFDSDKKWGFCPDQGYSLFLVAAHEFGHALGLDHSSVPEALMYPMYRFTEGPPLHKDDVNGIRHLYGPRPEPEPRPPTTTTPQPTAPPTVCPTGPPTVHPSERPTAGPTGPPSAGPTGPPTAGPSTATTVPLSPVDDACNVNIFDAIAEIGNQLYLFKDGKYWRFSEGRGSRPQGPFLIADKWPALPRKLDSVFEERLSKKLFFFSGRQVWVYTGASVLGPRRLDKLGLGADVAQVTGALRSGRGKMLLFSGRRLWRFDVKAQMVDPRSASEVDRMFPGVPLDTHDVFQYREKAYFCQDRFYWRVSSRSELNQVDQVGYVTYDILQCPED
sequence,measurement,setting,value
RGRRPLGLAG ([2Abz]RGRRPLGLAG[Tyr(3-NO2)]-NH2) [LNK049],% cleavage uPA t = 15 min,uPA,0%
same,% cleavage uPA t = 60 min,uPA,0%
same,% cleavage uPA t = 120 min,uPA,0%
same,% cleavage Matriptase t = 15 min,matriptase,16%
same,% cleavage Matriptase t = 60 min,matriptase,70%
same,% cleavage Matriptase t = 120 min,matriptase,100%
same,% cleavage MMP-2 t = 15 min,MMP-2; t = 15 min (Table 9),89%
same,% cleavage MMP-2 t = 15 min,MMP-2; [1],89%
same,% cleavage MMP-2 t = 60 min,MMP-2; t = 60 min (Table 9),100%
same,% cleavage MMP-2 t = 60 min,MMP-2; [2],100%
same,% cleavage MMP-2 t = 120 min,MMP-2; t = 120 min (Table 9),100%
same,% cleavage MMP-2 t = 120 min,MMP-2; [3],100%
same,% cleavage MMP-7 t = 15 min,MMP-7,1%
same,% cleavage MMP-7 t = 60 min,MMP-7,4%
same,% cleavage MMP-7 t = 120 min,MMP-7,8%
same,% cleavage MMP-9 t = 15 min,MMP-9,56%
same,% cleavage MMP-9 t = 60 min,MMP-9,100%
same,% cleavage MMP-9 t = 120 min,MMP-9,100%
RGRRPLGLAGGSG ([2Abz]RGRRPLGLAGGSG[Tyr(3-NO2)]-NH2) [LNK051],% cleavage uPA t = 15 min,uPA,0%
same,% cleavage uPA t = 60 min,uPA,0%
same,% cleavage uPA t = 120 min,uPA,0%
same,% cleavage Matriptase t = 15 min,matriptase,22%
same,% cleavage Matriptase t = 60 min,matriptase,72%
same,% cleavage Matriptase t = 120 min,matriptase,100%
same,% cleavage MMP-2 t = 15 min,MMP-2; t = 15 min (Table 9),73%
same,% cleavage MMP-2 t = 15 min,MMP-2; [1],73%
same,% cleavage MMP-2 t = 60 min,MMP-2; t = 60 min (Table 9),100%
same,% cleavage MMP-2 t = 60 min,MMP-2; [2],100%
same,% cleavage MMP-2 t = 120 min,MMP-2; t = 120 min (Table 9),100%
same,% cleavage MMP-2 t = 120 min,MMP-2; [3],100%
same,% cleavage MMP-7 t = 15 min,MMP-7,3%
same,% cleavage MMP-7 t = 60 min,MMP-7,8%
same,% cleavage MMP-7 t = 120 min,MMP-7,14%
same,% cleavage MMP-9 t = 15 min,MMP-9,62%
same,% cleavage MMP-9 t = 60 min,MMP-9,100%
same,% cleavage MMP-9 t = 120 min,MMP-9,100%
RGRRPLGYFGKL ([2Abz]RGRRPLGYFGKL[Tyr(3-NO2)]-NH2) [LNK057],% cleavage uPA t = 15 min,uPA,0%
same,% cleavage uPA t = 60 min,uPA,0%
same,% cleavage uPA t = 120 min,uPA,0%
same,% cleavage Matriptase t = 15 min,matriptase,22%
same,% cleavage Matriptase t = 60 min,matriptase,78%
same,% cleavage Matriptase t = 120 min,matriptase,100%
same,% cleavage MMP-2 t = 15 min,MMP-2; t = 15 min (Table 9),71%
same,% cleavage MMP-2 t = 15 min,MMP-2; [1],71%
same,% cleavage MMP-2 t = 60 min,MMP-2; t = 60 min (Table 9),100%
same,% cleavage MMP-2 t = 60 min,MMP-2; [2],100%
same,% cleavage MMP-2 t = 120 min,MMP-2; t = 120 min (Table 9),100%
same,% cleavage MMP-2 t = 120 min,MMP-2; [3],100%
same,% cleavage MMP-7 t = 15 min,MMP-7,0%
same,% cleavage MMP-7 t = 60 min,MMP-7,0%
same,% cleavage MMP-7 t = 120 min,MMP-7,0%
same,% cleavage MMP-9 t = 15 min,MMP-9,20%
same,% cleavage MMP-9 t = 60 min,MMP-9,100%
same,% cleavage MMP-9 t = 120 min,MMP-9,100%
